Reference: IntAct's records for PubMed 31515488

B1: Septin-2 (Homo sapiens), Q15019 (parent)
chain: MSKQQPTQFINPETPGYVGFANLPNQVHRKSVKKGFEFTLMVVGESGLGKSTLINSLFLTDLYPERVIPGAAEKIERTVQIEASTVEIEERGVKLRLTVVDTPGYGDAINCRDCFKTIISYIDEQFERYLHDESGLNRRHIIDNRVHCCFYFISPFGHGLKPLDVAFMKAIHNKVNIVPVIAKADTLTLKERERLKKRILDEIEEHNIKIYHLPDAESDEDEDFKEQTRLLKASIPFSVVGSNQLIEAKGKKVRGRLYPWGVVEVENPEHNDFLKLRTMLITHMQDLQEVTQDLHYENFRSERLKRGGRKVENEDMNKDQILLEKEAELRRMQEMIARMQAQMQMQMQGGDGDGGALGHHV
partner: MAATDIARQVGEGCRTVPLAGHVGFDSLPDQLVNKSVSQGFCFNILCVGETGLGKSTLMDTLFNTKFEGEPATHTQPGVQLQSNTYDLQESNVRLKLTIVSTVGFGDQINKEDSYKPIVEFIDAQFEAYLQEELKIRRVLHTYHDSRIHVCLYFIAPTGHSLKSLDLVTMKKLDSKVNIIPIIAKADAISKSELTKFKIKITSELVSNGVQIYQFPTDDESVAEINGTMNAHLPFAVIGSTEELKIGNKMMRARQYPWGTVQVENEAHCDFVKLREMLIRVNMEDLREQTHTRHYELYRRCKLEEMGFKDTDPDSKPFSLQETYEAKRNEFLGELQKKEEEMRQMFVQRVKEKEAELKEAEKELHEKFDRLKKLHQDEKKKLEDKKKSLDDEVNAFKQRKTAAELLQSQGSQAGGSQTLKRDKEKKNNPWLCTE
B2: Four and a half LIM domains protein 2 (Homo sapiens), Q14192 (parent)
chain: MTERFDCHHCNESLFGKKYILREESPYCVVCFETLFANTCEECGKPIGCDCKDLSYKDRHWHEACFHCSQCRNSLVDKPFAAKEDQLLCTDCYSNEYSSKCQECKKTIMPGTRKMEYKGSSWHETCFICHRCQQPIGTKSFIPKDNQNFCVPCYEKQHAMQCVQCKKPITTGGVTYREQPWHKECFVCTACRKQLSGQRFTARDDFAYCLNCFCDLYAKKCAGCTNPISGLGGTKYISFEERQWHNDCFNCKKCSLSLVGRGFLTERDDILCPDCGKDI
partner: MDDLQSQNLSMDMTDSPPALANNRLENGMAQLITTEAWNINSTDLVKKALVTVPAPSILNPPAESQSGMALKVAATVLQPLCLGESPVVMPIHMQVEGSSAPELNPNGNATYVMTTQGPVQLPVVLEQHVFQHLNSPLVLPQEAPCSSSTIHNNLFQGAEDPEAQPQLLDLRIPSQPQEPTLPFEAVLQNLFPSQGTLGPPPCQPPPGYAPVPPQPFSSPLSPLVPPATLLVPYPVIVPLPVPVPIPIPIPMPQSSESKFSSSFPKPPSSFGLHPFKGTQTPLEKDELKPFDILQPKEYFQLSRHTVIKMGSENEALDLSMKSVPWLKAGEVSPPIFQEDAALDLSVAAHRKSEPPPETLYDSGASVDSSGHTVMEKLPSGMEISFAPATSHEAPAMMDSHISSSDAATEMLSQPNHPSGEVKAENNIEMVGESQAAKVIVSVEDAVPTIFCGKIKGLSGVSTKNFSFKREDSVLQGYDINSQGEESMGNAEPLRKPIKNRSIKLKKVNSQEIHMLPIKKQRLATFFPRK
B3: Myomegalin (Homo sapiens), Q5VU43-2 (parent)
chain: MKEICRICARELCGNQRRWIFHTASKLNLQVLLSHVLGKDVPRDGKAEFACSKCAFMLDRIYRFDTVIARIEALSIERLQKLLLEKDRLKFCIASMYRKNNDDSGAEIKAGNGTVDMSVLPDARYSALLQEDFAYSGFECWVENEDQIQEPHSCHGSEGPGNRPRRCRGCAALRVADSDYEAICKVPRKVARSISCGPSSRWSTSICTEEPALSEVGPPDLASTKVPPDGESMEEETPGSSVESLDASVQASPPQQKDEETERSAKELGKCDCCSDDQAPQHGCNHKLELALSMIKGLDYKPIQSPRGSRLPIPVKSSLPGAKPGPSMTDGVSSGFLNRSLKPLYKTPVSYPLELSDLQELWDDLCEDYLPLRVQPMTEELLKQQKLNSHETTITQQSVSDSHLAELQEKIQQTEATNKILQEKLNEMSYELKCAQESSQKQDGTIQNLKETLKSRERETEELYQVIEGQNDTMAKLREMLHQSQLGQLHSSEGTSPAQQQVALLDLQSALFCSQLEIQKLQRVVRQKERQLADAKQCVQFVEAAAHESEQQKEASWKHNQELRKALQQLQEELQNKSQQLRAWEAEKYNEIRTQEQNIQHLNHSLSHKEQLLQEFRELLQYRDNSDKTLEANEMLLEKLRQRIHDKAVALERAIDEKFSALEEKEKELRQLRLAVRERDHDLERLRDVLSSNEATMQSMESLLRAKGLEVEQLSTTCQNLQWLKEEMETKFSRWQKEQESIIQQLQTSLHDRNKEVEDLSATLLCKLGPGQSEIAEELCQRLQRKERMLQDLLSDRNKQVLEHEMEIQGLLQSVSTREQESQAAAEKLVQALMERNSELQALRQYLGGRDSLMSQAPISNQQAEVTPTGRLGKQTDQGSMQIPSRDDSTSLTAKEDVSIPRSTLGDLDTVAGLEKELSNAKEELELMAKKERESQMELSALQSMMAVQEEELQVQAADMESLTRNIQIKEDLIKDLQMQLVDPEDIPAMERLTQEVLLLREKVASVESQGQEISGNRRQQLLLMLEGLVDERSRLNEALQAERQLYSSLVKFHAHPESSERDRTLQVELEGAQVLRSRLEEVLGRSLERLNRLETLAAIGGAAAGDDTEDTSTEFTDSIEEEAAHHSHQQL
partner: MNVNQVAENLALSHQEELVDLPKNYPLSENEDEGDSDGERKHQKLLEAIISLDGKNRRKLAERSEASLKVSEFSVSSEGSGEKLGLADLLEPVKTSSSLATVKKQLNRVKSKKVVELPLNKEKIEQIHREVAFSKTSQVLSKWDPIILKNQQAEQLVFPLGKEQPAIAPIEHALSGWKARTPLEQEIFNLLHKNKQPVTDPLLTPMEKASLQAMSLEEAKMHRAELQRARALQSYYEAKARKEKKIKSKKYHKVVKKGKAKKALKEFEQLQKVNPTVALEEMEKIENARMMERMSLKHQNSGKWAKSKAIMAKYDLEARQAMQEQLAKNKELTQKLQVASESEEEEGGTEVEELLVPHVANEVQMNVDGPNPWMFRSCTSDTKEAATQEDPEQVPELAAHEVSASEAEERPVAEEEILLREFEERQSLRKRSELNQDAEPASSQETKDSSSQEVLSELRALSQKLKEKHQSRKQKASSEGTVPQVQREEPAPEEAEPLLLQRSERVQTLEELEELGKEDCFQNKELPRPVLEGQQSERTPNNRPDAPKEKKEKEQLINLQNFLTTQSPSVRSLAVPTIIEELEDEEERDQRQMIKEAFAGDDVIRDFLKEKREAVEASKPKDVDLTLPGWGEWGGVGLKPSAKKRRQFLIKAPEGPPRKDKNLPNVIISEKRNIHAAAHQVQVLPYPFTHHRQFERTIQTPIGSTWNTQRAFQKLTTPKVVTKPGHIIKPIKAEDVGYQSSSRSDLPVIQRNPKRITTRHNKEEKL
B4: Proto-oncogene serine/threonine-protein kinase mos (Homo sapiens), P00540 (parent)
chain: MPSPLALRPYLRSEFSPSVDARPCSSPSELPAKLLLGATLPRAPRLPRRLAWCSIDWEQVCLLQRLGAGGFGSVYKATYRGVPVAIKQVNKCTKNRLASRRSFWAELNVARLRHDNIVRVVAASTRTPAGSNSLGTIIMEFGGNVTLHQVIYGAAGHPEGDAGEPHCRTGGQLSLGKCLKYSLDVVNGLLFLHSQSIVHLDLKPANILISEQDVCKISDFGCSEKLEDLLCFQTPSYPLGGTYTHRAPELLKGEGVTPKADIYSFAITLWQMTTKQAPYSGERQHILYAVVAYDLRPSLSAAVFEDSLPGQRLGDVIQRCWRPSAAQRPSARLLLVDLTSLKAELG
partner: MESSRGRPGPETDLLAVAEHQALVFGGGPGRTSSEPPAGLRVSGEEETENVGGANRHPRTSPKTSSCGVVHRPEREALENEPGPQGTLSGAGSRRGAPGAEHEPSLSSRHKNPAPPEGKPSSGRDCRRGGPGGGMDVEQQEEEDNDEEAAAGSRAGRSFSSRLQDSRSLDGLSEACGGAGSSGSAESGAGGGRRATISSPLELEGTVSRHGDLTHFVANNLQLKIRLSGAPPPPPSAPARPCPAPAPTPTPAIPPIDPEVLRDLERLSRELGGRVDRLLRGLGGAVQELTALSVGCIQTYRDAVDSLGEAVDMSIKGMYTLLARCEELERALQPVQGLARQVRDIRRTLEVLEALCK
B5: Endothelial transcription factor GATA-2 (Homo sapiens), P23769 (parent)
chain: MEVAPEQPRWMAHPAVLNAQHPDSHHPGLAHNYMEPAQLLPPDEVDVFFNHLDSQGNPYYANPAHARARVSYSPAHARLTGGQMCRPHLLHSPGLPWLDGGKAALSAAAAHHHNPWTVSPFSKTPLHPSAAGGPGGPLSVYPGAGGGSGGGSGSSVASLTPTAAHSGSHLFGFPPTPPKEVSPDPSTTGAASPASSSAGGSAARGEDKDGVKYQVSLTESMKMESGSPLRPGLATMGTQPATHHPIPTYPSYVPAAAHDYSSGLFHPGGFLGGPASSFTPKQRSKARSCSEGRECVNCGATATPLWRRDGTGHYLCNACGLYHKMNGQNRPLIKPKRRLSAARRAGTCCANCQTTTTTLWRRNANGDPVCNACGLYYKLHNVNRPLTMKKEGIQTRNRKMSNKSKKSKKGAECFEELSKCMQEKSSPFSAAALAGHMAPVGHLPPFSHSGHILPTPTPIHPSSSLSFGHPHPSSMVTAMG
partner: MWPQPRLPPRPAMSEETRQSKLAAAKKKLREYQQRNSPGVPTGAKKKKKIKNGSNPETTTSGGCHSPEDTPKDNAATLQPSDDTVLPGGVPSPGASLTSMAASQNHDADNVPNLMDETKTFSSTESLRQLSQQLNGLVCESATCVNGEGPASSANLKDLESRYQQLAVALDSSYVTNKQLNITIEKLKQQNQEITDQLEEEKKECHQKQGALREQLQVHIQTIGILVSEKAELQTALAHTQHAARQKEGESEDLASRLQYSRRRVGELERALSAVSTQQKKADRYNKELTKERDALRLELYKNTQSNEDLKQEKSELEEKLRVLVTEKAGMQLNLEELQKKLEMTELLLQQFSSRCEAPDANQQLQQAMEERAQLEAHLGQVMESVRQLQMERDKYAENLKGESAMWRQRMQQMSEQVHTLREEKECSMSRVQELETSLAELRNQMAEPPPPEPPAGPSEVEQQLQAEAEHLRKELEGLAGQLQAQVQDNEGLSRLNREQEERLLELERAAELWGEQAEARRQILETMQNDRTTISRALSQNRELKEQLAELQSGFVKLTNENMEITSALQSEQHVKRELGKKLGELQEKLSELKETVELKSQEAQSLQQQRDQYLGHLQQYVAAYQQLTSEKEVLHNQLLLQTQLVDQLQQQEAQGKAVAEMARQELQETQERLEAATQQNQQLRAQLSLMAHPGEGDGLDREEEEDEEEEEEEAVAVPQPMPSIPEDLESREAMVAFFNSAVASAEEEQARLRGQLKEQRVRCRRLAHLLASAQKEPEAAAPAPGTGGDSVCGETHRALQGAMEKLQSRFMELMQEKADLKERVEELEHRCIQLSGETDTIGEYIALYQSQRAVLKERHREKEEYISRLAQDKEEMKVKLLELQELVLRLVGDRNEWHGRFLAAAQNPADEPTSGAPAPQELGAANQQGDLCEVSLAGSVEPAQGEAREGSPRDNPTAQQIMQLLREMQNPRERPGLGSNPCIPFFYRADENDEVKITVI

Variants of: B1
Settings: with sept6_human SEPTIN6, Q14141

Row | Variant | effect of a mutation on the interaction
1 | H270D | with no effect

Variants of: B2
Settings: with rai2_human RAI2, Q9Y5P3

Row | Variant | effect of a mutation on the interaction
2 | A37S | with no effect
3 | N95K | with no effect

Variants of: B3
Settings: with ut14c_human UTP14C

Row | Variant | effect of a mutation on the interaction
4 | N28S | with no effect

Variants of: B4
Settings: with borc6_human BORCS6, Q96GS4

Row | Variant | effect of a mutation on the interaction
5 | A105S | with no effect
6 | A123T | disrupting interaction strength

Variants of: B5
Settings: with goga2_human GOLGA2, Q08379

Row | Variant | effect of a mutation on the interaction
7 | A164T | with no effect
